Assay results from PMC6255772.

Assays:
[1] = target: recombinant human IGF-2 (human); test: SPR; competition with immobilized MEDI-573; conditions: Fc fusion
IGF-TRAP-3.1 (human) = IGF-TRAP-3.1 (human) (UniProt P08069); test: SPR; BioRad ProteOn, GLC chip; about 1200 RU IGF-TRAP captured on immobilised goat anti-human Fc antibody; ligands 320-3.95 nM injected in triplicates, 120 s association, 600 s dissociation; PBST, 25 °C; 1:1 binding model
IGF-TRAP-3.3 (human) = IGF-TRAP-3.3 (human) (UniProt P08069); test: as above

fold lower affinity than for the IGF ligands (IGF-TRAP-3.1 (human)) | fold lower affinity than for the IGF ligands (IGF-TRAP-3.3 (human)) | Substance | IC50 [1]
 |  | IGF-TRAP-3.3 (from UniProt P08069 31-736; P08069 741-935; P01857 1-328) | 6.44 nM
1000 fold | 1000 fold | human insulin (ligand) | 
